Measured values taken from patent publication US10280205B2, “Method for treating cancer with an activated T lymphocyte that selectively recognizes a cancer cell consisting of specific peptide” (immatics biotechnologies GmbH, priority 2015, dated 2019).

Biological target: HLA-A*02:01 (Homo sapiens, UniProt P04439, D140Y/D185E/D98H/E176V/E277Q/G131W/G231S/I119V/I121R/I166T/I218V/L300P/L318F/N151K/N90K/P208A/P217A/Q86G/Q94H/R138H/R169H/T345S)
Assay: MHC binding assay: UV-ligand exchange with beta2m ELISA (exchange yield)
Details: binding to HLA-A*02:01, β2m ELISA
How it was run: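 Exchange yield reflects how much β2m remains bound, measured by ELISA: streptavidin capture of 100-fold diluted monomers, HRP anti-β2m at 37° C. for 1 h, TMB read at 450 nm. Monomers come from UV cleavage of a conditional HLA-A*02:01 ligand in the presence of the candidate peptide.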

| Peptide exchange (MHC class I binding score, peptide exchange yield) | Substance |
| --- | --- |
| “++++” (≥75% = ++++) | 68 (SLMELPRGLFL; listed as Homo sapiens) [compound 68] |
| “++++” (≥75% = ++++) | 585 (ALWDLAADKQTL; listed as Homo sapiens) [compound 585] |
| “++++” (≥75% = ++++) | 61 (FLQGYQLHL; listed as Homo sapiens) [compound 61] |
| “++++” (≥75% = ++++) | 620 (KLLNKIYEA; listed as Homo sapiens) [compound 620] |
| “++++” (≥75% = ++++) | 168 (KILDADIQL; listed as Homo sapiens) [compound 168] |
| “+++” (≥50 = +++) | 142 (FLFATPVFI; listed as Homo sapiens) [compound 142] |
| “+++” (≥50 = +++) | 285 (QLLHVGVTV; listed as Homo sapiens) [compound 285] |
| “+++” (≥50 = +++) | 501 (LLDPNVKSIFV; listed as Homo sapiens) [compound 501] |
| “+++” (≥50 = +++) | 345 (VIWKALIHL; listed as Homo sapiens) [compound 345] |
| “++++” (≥75% = ++++) | 289 (VLLEIEDLQV; listed as Homo sapiens) [compound 289] |
| “++” (≥20% = ++) | 172 (VLYSYTIITV; listed as Homo sapiens) [compound 172] |
| “+++” (≥50 = +++) | 558 (GLLENIPRV; listed as Homo sapiens) [compound 558] |
| “++” (≥20% = ++) | 523 (YQIPRTFTL; listed as Homo sapiens) [compound 523] |
| “++” (≥20% = ++) | 565 (ALQETPTSV; listed as Homo sapiens) [compound 565] |
| “++” (≥20% = ++) | 382 (ALQNYIKEA; listed as Homo sapiens) [compound 382] |
| “++” (≥20% = ++) | 389 (LLADVTHLL; listed as Homo sapiens) [compound 389] |
| “++++” (≥75% = ++++) | 310 (FLVDTPLARA; listed as Homo sapiens) [compound 310] |
| “+++” (≥50 = +++) | 364 (LLQNEQFEL; listed as Homo sapiens) [compound 364] |
| “+++” (≥50 = +++) | 163 (ALDEMGDLLQL; listed as Homo sapiens) [compound 163] |
| “++++” (≥75% = ++++) | 237 (ALLEASGTLLL; listed as Homo sapiens) [compound 237] |

| Peptide exchange (MHC class I binding score, peptide exchange yield) | Substance |
| --- | --- |
| “++” (≥20% = ++) | 403 (KLYDRILRV; listed as Homo sapiens) [compound 403] |
| “+++” (≥50 = +++) | 519 (GLLHLTLLL; listed as Homo sapiens) [compound 519] |
| “++++” (≥75% = ++++) | 53 (KMIETDILQKV; listed as Homo sapiens) [compound 53] |
| “+++” (≥50 = +++) | 495 (FIFSEKPVFV; listed as Homo sapiens) [compound 495] |
| “++” (≥20% = ++) | 133 (KVLSNIHTV; listed as Homo sapiens) [compound 133] |
| “++” (≥20% = ++) | 186 (TLFFQQNAL; listed as Homo sapiens) [compound 186] |
| “++” (≥20% = ++) | 392 (ALLHPQGFEV; listed as Homo sapiens) [compound 392] |
| “+++” (≥50 = +++) | 120 (ALLGIPLTLV; listed as Homo sapiens) [compound 120] |
| “+++” (≥50 = +++) | 252 (LLIGTDVSL; listed as Homo sapiens) [compound 252] |
| “++” (≥20% = ++) | 279 (ALWGGTQPLL; listed as Homo sapiens) [compound 279] |
| “++” (≥20% = ++) | 440 (ALADGVTMQV; listed as Homo sapiens) [compound 440] |
| “++++” (≥75% = ++++) | 602 (YLLEQIKLIEV; listed as Homo sapiens) [compound 602] |
| “+++” (≥50 = +++) | 54 (SLLEQGKEPWMV; listed as Homo sapiens) [compound 54] |
| “+++” (≥50 = +++) | 546 (VMIAGKVAVV; listed as Homo sapiens) [compound 546] |
| “++” (≥20% = ++) | 275 (YLVYILNEL; listed as Homo sapiens) [compound 275] |
| “++” (≥20% = ++) | 615 (VLPPDTDPA; listed as Homo sapiens) [compound 615] |
| “++” (≥20% = ++) | 32 (KLDDLTQDLTV; listed as Homo sapiens) [compound 32] |
| “+++” (≥50 = +++) | 514 (ILVDWLVQV; listed as Homo sapiens) [compound 514] |
| “+++” (≥50 = +++) | 286 (YLFPGIPEL; listed as Homo sapiens) [compound 286] |

The remaining lines, values behind:

| Substance | Peptide exchange (MHC class I binding score, peptide exchange yield) |
| --- | --- |
| 595 (VLLSIYPRV; listed as Homo sapiens) [compound 595] | “+++” (≥50 = +++) |
| 599 (YLLNDASLISV; listed as Homo sapiens) [compound 599] | “+++” (≥50 = +++) |
| 126 (VLAYFLPEA; listed as Homo sapiens) [compound 126] | “++++” (≥75% = ++++) |
| 401 (ILLDDTGLAYI; listed as Homo sapiens) [compound 401] | “+++” (≥50 = +++) |
| 255 (VLASYNLTV; listed as Homo sapiens) [compound 255] | “+++” (≥50 = +++) |
| 183 (FGLDLVTEL; listed as Homo sapiens) [compound 183] | “+++” (≥50 = +++) |
| 361 (ALYELEGTTV; listed as Homo sapiens) [compound 361] | “+++” (≥50 = +++) |
| 394 (LLAVIGGLVYL; listed as Homo sapiens) [compound 394] | “+++” (≥50 = +++) |
| 107 (FLQPVDDTQHL; listed as Homo sapiens) [compound 107] | “+++” (≥50 = +++) |
| 464 (ALNDCIYSV; listed as Homo sapiens) [compound 464] | “+++” (≥50 = +++) |
| 64 (YAAPGGLIGV; listed as Homo sapiens) [compound 64] | “++” (≥20% = ++) |
| 238 (YLISFQTHI; listed as Homo sapiens) [compound 238] | “+++” (≥50 = +++) |
| 288 (NLINEINGV; listed as Homo sapiens) [compound 288] | “+++” (≥50 = +++) |
| 381 (FIDEAYVEV; listed as Homo sapiens) [compound 381] | “++” (≥20% = ++) |
| 552 (GLLDLPFRVGV; listed as Homo sapiens) [compound 552] | “++++” (≥75% = ++++) |
| 169 (NLPEYLPFV; listed as Homo sapiens) [compound 169] | “+++” (≥50 = +++) |
| 455 (SLLKEPQKVQL; listed as Homo sapiens) [compound 455] | “++” (≥20% = ++) |
| 386 (ILFRYPLTI; listed as Homo sapiens) [compound 386] | “+++” (≥50 = +++) |
| 39 (SVAPNLPAV; listed as Homo sapiens) [compound 39] | “+++” (≥50 = +++) |
| 227 (ALMNTLLYL; listed as Homo sapiens) [compound 227] | “++” (≥20% = ++) |
| 341 (SQIALNEKLVNL; listed as Homo sapiens) [compound 341] | “+++” (≥50 = +++) |
| 385 (SLLEQGLVEA; listed as Homo sapiens) [compound 385] | “++” (≥20% = ++) |
| 528 (SVAEGRALMSV; listed as Homo sapiens) [compound 528] | “+++” (≥50 = +++) |
| 210 (LLLNAVLTV; listed as Homo sapiens) [compound 210] | “++” (≥20% = ++) |
| 544 (LLWDVPAPSL; listed as Homo sapiens) [compound 544] | “+++” (≥50 = +++) |
| 155 (RVANLHFPSV; listed as Homo sapiens) [compound 155] | “+++” (≥50 = +++) |
| 160 (FLFDEEIEQI; listed as Homo sapiens) [compound 160] | “+++” (≥50 = +++) |
| 175 (YLFENISQL; listed as Homo sapiens) [compound 175] | “+++” (≥50 = +++) |
